Results reported in patent publication US20200024330A1.

Tests used:
Assay in all cases: cell-based or functional assay
[1] = molecular target: HIV-1 92RW020 Env (pseudovirus) (HIV-1 92RW020)
[2] = molecular target: HIV-1 ADA Env (pseudovirus) (HIV-1 ADA)
[3] = molecular target: HIV-1 Env of isolate AC10 (HIV-1)
[4] = molecular target: HIV-1 Env of isolate CAAN (HIV-1)
[5] = molecular target: HIV-1 Env of isolate CAP45 (HIV-1)
[6] = molecular target: HIV-1 Env of isolate DU156 (HIV-1)
[7] = molecular target: HIV-1 Env of isolate DU422 (HIV-1)
[8] = molecular target: HIV-1 Env of isolate Du172 (HIV-1)
[9] = molecular target: HIV-1 Env of isolate PVO.4 (HIV-1)
[10] = molecular target: HIV-1 Env of isolate REJ04541 (HIV-1)
[11] = molecular target: HIV-1 Env of isolate THRO.18 (HIV-1)
[12] = molecular target: HIV-1 Env of isolate TR0.11 (HIV-1)
[13] = molecular target: HIV-1 Env of isolate ZM214 (HIV-1)
[14] = molecular target: HIV-1 Env of isolate ZM233 (HIV-1)
[15] = molecular target: HIV-1 Env of isolate ZM249 (HIV-1)
[16] = molecular target: HIV-1 JR-CSF Env I309A (pseudovirus) (HIV-1 JR-CSF) (UniProt P20871)
[17] = molecular target: HIV-1 JR-CSF Env Y318A (pseudovirus) (HIV-1 JR-CSF) (UniProt P20871)
[18] = molecular target: HIV-1 JR-CSF Env, wild type (pseudovirus) (HIV-1 JR-CSF) (UniProt P20871)
[19] = molecular target: HIV-1 JR-FL Env E168K (pseudovirus) (HIV-1 JR-FL)
[20] = molecular target: MuLV envelope protein (control pseudovirus) (MuLV)
[21] = molecular target: HIV-1 92BR020 envelope glycoprotein (Env), clade B (HIV-1)
[22] = molecular target: HIV-1 92RW020 envelope glycoprotein (Env), clade A (HIV-1)
[23] = molecular target: HIV-1 92TH021 envelope glycoprotein (Env), clade AE (HIV-1)
[24] = molecular target: HIV-1 92UG005 envelope glycoprotein (Env), clade D (HIV-1)
[25] = molecular target: HIV-1 92UG024 envelope glycoprotein (Env), clade D (HIV-1)
[26] = molecular target: HIV-1 93IN905 envelope glycoprotein (Env), clade C (HIV-1)
[27] = molecular target: HIV-1 93UG077 envelope glycoprotein (Env), clade A (HIV-1)
[28] = molecular target: HIV-1 94UG103 envelope glycoprotein (Env), clade A (HIV-1)
[29] = molecular target: HIV-1 APV13 envelope glycoprotein (Env), clade B (HIV-1)
[30] = molecular target: HIV-1 APV17 envelope glycoprotein (Env), clade B (HIV-1)
[31] = molecular target: HIV-1 APV6 envelope glycoprotein (Env), clade B (HIV-1)
[32] = molecular target: HIV-1 CMU02 envelope glycoprotein (Env), clade AE (HIV-1)
[33] = molecular target: HIV-1 JRCSF envelope glycoprotein (Env), clade B (HIV-1) (UniProt P20871)
[34] = molecular target: HIV-1 JRFL envelope glycoprotein (Env), clade B (HIV-1)
[35] = molecular target: HIV-1 MGRM-A-010 envelope glycoprotein (Env), clade A (HIV-1)
[36] = molecular target: HIV-1 MGRM-AG-005 envelope glycoprotein (Env), clade AG (HIV-1)
[37] = molecular target: HIV-1 MGRM-C-026 envelope glycoprotein (Env), clade C (HIV-1)
[38] = molecular target: HIV-1 MGRM-C-027 envelope glycoprotein (Env), clade C (HIV-1)
[39] = molecular target: HIV-1 MGRM-C-028 envelope glycoprotein (Env), clade C (HIV-1)
[40] = molecular target: HIV-1 MGRM-D-001 envelope glycoprotein (Env), clade D (HIV-1)
[41] = molecular target: HIV-1 MGRM-D-018 envelope glycoprotein (Env), clade D (HIV-1)
[42] = molecular target: HIV-1 NL43 envelope glycoprotein (Env), clade B (HIV-1)
[43] = molecular target: aMLV envelope protein (negative control virus)

B1: 1489_I13 (PG16) (TCN-120) (antibody, V domains shown)
VH: QEQLLESGGGVVQPGGSLRLSCLASGFTFHKYGMHWVRQAPGKGLEWVALISDDGMRKYHSNSMWGRVTISRDNSKNTLYLQFSSLKVEDTAMFFCAREAGGPIWHDDVKYYDFNDGYYNYHYMDVWGKGTTVTVSS
VL: QSALTQPASVSGSPGQTITISCNGTSSDVGGFDSVSWYQQSPGKAPKVMVFDVSHRPSGISNRFSGSKSGNTASLTISGLHIEDEGDYFCSSLTDRSHRIFGGGTKVTVLG
- IC50 (ug/ml), neutralization [1]: 0.03 µg/mL
- IC50 (ug/ml), neutralization [2]: 0.008 µg/mL
- IC50, pseudovirus neutralization (TZM-bl) [3]: < 0.01 µg/mL
- IC50, pseudovirus neutralization (TZM-bl) [4]: 24.9 µg/mL
- IC50, pseudovirus neutralization (TZM-bl) [5]: < 0.01 µg/mL
- IC50, pseudovirus neutralization (TZM-bl) [6]: < 0.01 µg/mL
- IC50, pseudovirus neutralization (TZM-bl) [7]: 1.87 µg/mL
- IC50, pseudovirus neutralization (TZM-bl) [8]: < 0.01 µg/mL
- IC50, pseudovirus neutralization (TZM-bl) [9]: 20.6 µg/mL
- IC50, pseudovirus neutralization (TZM-bl) [10]: 0.34 µg/mL
- IC50, pseudovirus neutralization (TZM-bl) [11]: 7.41 µg/mL
- IC50, pseudovirus neutralization (TZM-bl) [12]: 10.9 µg/mL
- IC50, pseudovirus neutralization (TZM-bl) [13]: > 25 µg/mL
- IC50, pseudovirus neutralization (TZM-bl) [14]: < 0.01 µg/mL
- IC50, pseudovirus neutralization (TZM-bl) [15]: < 0.01 µg/mL
- IC50 (ug/ml), neutralization [16]: > 1 µg/mL
- IC50 (ug/ml), neutralization [17]: > 1 µg/mL
- IC50 (ug/ml), neutralization [18]: 0.002 µg/mL
- IC50 (ug/ml), neutralization [19]: 0.005 µg/mL
- IC50, pseudovirus neutralization (TZM-bl), control virus [20]: > 25 µg/mL

B2: PGT-135 monoclonal antibody (clones 5343_B08 and 5344_E16) (antibody, V domains shown)
VH: QLQMQESGPGLVKPSETLSLSCTVSGDSIRGGEWGDKDYHWGWVRHSAGKGLEWIGSIHWRGTTHYKESLRRRVSMSIDTSRNWFSLRLASVTAADTAVYFCARHRHHDVFMLVPIAGWFDVWGPGVQVTVSS
VL: EIVMTQSPDTLSVSPGETVTLSCRASQNINKNLAWYQYKPGQSPRLVIFETYSKIAAFPARFVASGSGTEFTLTINNMQSEDVAVYYCQQYEEWPRTFGQGTKVDIK
- IC50 (neutralization of pseudovirus) [21]: 0.104 µg/mL
- IC80 (neutralization of pseudovirus) [21]: 0.253 µg/mL
- IC90 (neutralization of pseudovirus) [21]: 0.43 µg/mL
- IC95 (neutralization of pseudovirus) [21]: 0.72 µg/mL
- IC50 (neutralization of pseudovirus) [22]: 0.157 µg/mL
- IC80 (neutralization of pseudovirus) [22]: 3.46 µg/mL
- IC90 (neutralization of pseudovirus) [22]: > 10 µg/mL
- IC95 (neutralization of pseudovirus) [22]: > 10 µg/mL
- IC50 (neutralization of pseudovirus) [23]: > 10 µg/mL
- IC80 (neutralization of pseudovirus) [23]: > 10 µg/mL
- IC90 (neutralization of pseudovirus) [23]: > 10 µg/mL
- IC95 (neutralization of pseudovirus) [23]: > 10 µg/mL
- IC50 (neutralization of pseudovirus) [24]: > 10 µg/mL
- IC80 (neutralization of pseudovirus) [24]: > 10 µg/mL
- IC90 (neutralization of pseudovirus) [24]: > 10 µg/mL
- IC95 (neutralization of pseudovirus) [24]: > 10 µg/mL
- IC50 (neutralization of pseudovirus) [25]: 0.0139 µg/mL
- IC80 (neutralization of pseudovirus) [25]: 0.054 µg/mL
- IC90 (neutralization of pseudovirus) [25]: 0.122 µg/mL
- IC95 (neutralization of pseudovirus) [25]: 0.267 µg/mL
- IC50 (neutralization of pseudovirus) [26]: 0.0183 µg/mL
- IC80 (neutralization of pseudovirus) [26]: 0.0648 µg/mL
- IC90 (neutralization of pseudovirus) [26]: 0.136 µg/mL
- IC95 (neutralization of pseudovirus) [26]: 0.268 µg/mL
- IC50 (neutralization of pseudovirus) [27]: > 10 µg/mL
- IC80 (neutralization of pseudovirus) [27]: > 10 µg/mL
- IC90 (neutralization of pseudovirus) [27]: > 10 µg/mL
- IC95 (neutralization of pseudovirus) [27]: > 10 µg/mL
- IC50 (neutralization of pseudovirus) [28]: > 10 µg/mL
- IC80 (neutralization of pseudovirus) [28]: > 10 µg/mL
- IC90 (neutralization of pseudovirus) [28]: > 10 µg/mL
- IC95 (neutralization of pseudovirus) [28]: > 10 µg/mL
- IC50 (neutralization of pseudovirus) [29]: 0.545 µg/mL
- IC80 (neutralization of pseudovirus) [29]: > 10 µg/mL
- IC90 (neutralization of pseudovirus) [29]: > 10 µg/mL
- IC95 (neutralization of pseudovirus) [29]: > 10 µg/mL
- IC50 (neutralization of pseudovirus) [30]: > 10 µg/mL
- IC80 (neutralization of pseudovirus) [30]: > 10 µg/mL
- IC90 (neutralization of pseudovirus) [30]: > 10 µg/mL
- IC95 (neutralization of pseudovirus) [30]: > 10 µg/mL
- IC50 (neutralization of pseudovirus) [31]: > 10 µg/mL
- IC80 (neutralization of pseudovirus) [31]: > 10 µg/mL
- IC90 (neutralization of pseudovirus) [31]: > 10 µg/mL
- IC95 (neutralization of pseudovirus) [31]: > 10 µg/mL
- IC50 (neutralization of pseudovirus) [32]: > 10 µg/mL
- IC80 (neutralization of pseudovirus) [32]: > 10 µg/mL
- IC90 (neutralization of pseudovirus) [32]: > 10 µg/mL
- IC95 (neutralization of pseudovirus) [32]: > 10 µg/mL
- IC50 (neutralization of pseudovirus) [33]: 0.113 µg/mL
- IC80 (neutralization of pseudovirus) [33]: 0.503 µg/mL
- IC90 (neutralization of pseudovirus) [33]: 1.47 µg/mL
- IC95 (neutralization of pseudovirus) [33]: 8.3 µg/mL
- IC50 (neutralization of pseudovirus) [34]: > 10 µg/mL
- IC80 (neutralization of pseudovirus) [34]: > 10 µg/mL
- IC90 (neutralization of pseudovirus) [34]: > 10 µg/mL
- IC95 (neutralization of pseudovirus) [34]: > 10 µg/mL
- IC50 (neutralization of pseudovirus) [35]: > 10 µg/mL
- IC80 (neutralization of pseudovirus) [35]: > 10 µg/mL
- IC90 (neutralization of pseudovirus) [35]: > 10 µg/mL
- IC95 (neutralization of pseudovirus) [35]: > 10 µg/mL
- IC50 (neutralization of pseudovirus) [36]: > 10 µg/mL
- IC80 (neutralization of pseudovirus) [36]: > 10 µg/mL
- IC90 (neutralization of pseudovirus) [36]: > 10 µg/mL
- IC95 (neutralization of pseudovirus) [36]: > 10 µg/mL
- IC50 (neutralization of pseudovirus) [37]: 0.0123 µg/mL
- IC80 (neutralization of pseudovirus) [37]: 0.0562 µg/mL
- IC90 (neutralization of pseudovirus) [37]: 0.139 µg/mL
- IC95 (neutralization of pseudovirus) [37]: 0.331 µg/mL
- IC50 (neutralization of pseudovirus) [38]: > 10 µg/mL
- IC80 (neutralization of pseudovirus) [38]: > 10 µg/mL
- IC90 (neutralization of pseudovirus) [38]: > 10 µg/mL
- IC95 (neutralization of pseudovirus) [38]: > 10 µg/mL
- IC50 (neutralization of pseudovirus) [39]: 2.16 µg/mL
- IC80 (neutralization of pseudovirus) [39]: > 10 µg/mL
- IC90 (neutralization of pseudovirus) [39]: > 10 µg/mL
- IC95 (neutralization of pseudovirus) [39]: > 10 µg/mL
- IC50 (neutralization of pseudovirus) [40]: > 10 µg/mL
- IC80 (neutralization of pseudovirus) [40]: > 10 µg/mL
- IC90 (neutralization of pseudovirus) [40]: > 10 µg/mL
- IC95 (neutralization of pseudovirus) [40]: > 10 µg/mL
- IC50 (neutralization of pseudovirus) [41]: 0.0433 µg/mL
- IC80 (neutralization of pseudovirus) [41]: 0.2 µg/mL
- IC90 (neutralization of pseudovirus) [41]: > 10 µg/mL
- IC95 (neutralization of pseudovirus) [41]: > 10 µg/mL
- IC50 (neutralization of pseudovirus) [42]: 6.79 µg/mL
- IC80 (neutralization of pseudovirus) [42]: > 10 µg/mL
- IC90 (neutralization of pseudovirus) [42]: > 10 µg/mL
- IC95 (neutralization of pseudovirus) [42]: > 10 µg/mL
- IC50 (neutralization of pseudovirus) [43]: > 10 µg/mL
- IC80 (neutralization of pseudovirus) [43]: > 10 µg/mL
- IC90 (neutralization of pseudovirus) [43]: > 10 µg/mL
- IC95 (neutralization of pseudovirus) [43]: > 10 µg/mL
